Measurements reported in patent US20100331246A1 (INDIANA UNIVERSITY RESEARCH AND TECHNOLOGY, published 2010).
Where two headings read alike, the source gives them in different places. Each block holds one substance with its values, some of them ahead of it.

Tests used:
Assay in all cases: cell-based or functional assay
GLP-1 receptor [1] = molecular target: GLP-1 receptor (UniProt P43220 24-463, limits assumed)
glucagon receptor = glucagon receptor (UniProt P47871 26-477)
GLP-1 receptor [2] = molecular target: GLP-1 receptor (UniProt P43220)
Chain of GLP-1 receptor (UniProt P43220) (P43220 24-463 limits assumed): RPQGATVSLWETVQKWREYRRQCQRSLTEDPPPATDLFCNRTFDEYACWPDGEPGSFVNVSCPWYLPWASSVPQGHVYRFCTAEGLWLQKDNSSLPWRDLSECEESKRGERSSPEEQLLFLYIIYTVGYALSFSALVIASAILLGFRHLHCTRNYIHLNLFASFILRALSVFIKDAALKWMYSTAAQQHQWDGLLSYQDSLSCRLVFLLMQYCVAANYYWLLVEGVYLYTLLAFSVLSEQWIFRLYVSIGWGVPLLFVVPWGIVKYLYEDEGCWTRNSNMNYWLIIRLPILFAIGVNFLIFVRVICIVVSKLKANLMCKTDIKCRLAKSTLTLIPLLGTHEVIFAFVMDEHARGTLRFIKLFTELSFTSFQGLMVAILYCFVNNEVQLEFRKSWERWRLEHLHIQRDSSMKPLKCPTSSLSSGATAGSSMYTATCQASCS

Substance: HO-F^5F^6-O-F^7,GLP(8-36)-CEX (peptide)
% potency with respect to parent (GLP-1 receptor [2]): 3.6%
% potency with respect to parent, before incubation (GLP-1 receptor [2]): 3.7%
% potency with respect to parent, prodrug incubated in PBS for 24 hrs (GLP-1 receptor [2]): 17.2%

Substance: F^5V^6-O-F^7,GLP(8-36)-CEX (peptide)
% potency with respect to parent (GLP-1 receptor [2]): 1.3%

Substance: HO-F5dV6-O-F7,GLP(8-36)-CEX (peptide)
% potency with respect to parent (GLP-1 receptor [1]): 7%

Substance: G^5V^6-O-F^7,GLP(8-36)CEX (peptide)
% potency with respect to parent (GLP-1 receptor [2]): 12%
% potency with respect to parent, before incubation (GLP-1 receptor [2]): 10.9%
% potency with respect to parent, prodrug incubated in PBS for 24 hrs (GLP-1 receptor [2]): 46%
% potency with respect to parent, prodrug incubated in PBS for 168 hrs (GLP-1 receptor [2]): 95.8%

Substance: (H7F),(E9Q),GLP(8-36)-CEX (peptide)
% potency with respect to GLP-1 (GLP-1 receptor [2]): 33.3%

The remaining lines, values ahead:

GLP-1 EC50 (GLP-1 receptor [1]): 5 to 25 nM
GLP-1 EC50 (GLP-1 receptor [1]; record 2): 4 nM
Glucagon IC50 (glucagon receptor): 10 to 30 nM
Glucagon IC50 (glucagon receptor; record 2): 6 nM
Substance: [PLA6, D9, E16K20(lactam), D28]G(6-29) (peptide)

GLP-1 EC50 (GLP-1 receptor [1]): 289 nM
Glucagon IC50 (glucagon receptor): 22 nM
Substance: [PLA6, D9, E16, E24K28(lactam), D28]G(6~29) (peptide)

Glucagon IC50 (glucagon receptor): 63 nM
Substance: [A2E3, E16K20(Lactam), D28]G(2~29) (peptide)

GLP-1 EC50 (GLP-1 receptor [1]): 239 nM
Glucagon IC50 (glucagon receptor): 74 nM
Substance: [PLA6, D9, E16, K20E24(Lactam), D28]G(6-29) (peptide)

GLP-1 EC50 (GLP-1 receptor [1]): 151 nM
Glucagon IC50 (glucagon receptor): 10 to 30 nM
Substance: [E9, E16K20(lactam), D28]G(4~29) (peptide)

GLP-1 EC50 (GLP-1 receptor [1]): 0.2 nM
Glucagon IC50 (glucagon receptor): 130 nM
Substance: [A2E3, E16K20(Lactam), D28]G(1~29) (peptide)

GLP-1 EC50 (GLP-1 receptor [1]): 177 nM
GLP-1 EC50 (GLP-1 receptor [1]; record 2): 21 nM
Glucagon IC50 (glucagon receptor): 63 nM
Glucagon IC50 (glucagon receptor; record 2): 13 nM
Substance: [PLA6, D9, K12E16(Lactam), D28]G(6-29) (peptide)
